± gives the uncertainty stated by the source.
B1: Probable E3 ubiquitin-protein ligase MID2, residues 191 to 235; numbered along this chain, Q9UJV3 (parent)
chain: RGITCLDHENEKVNMYCVSDDQLICALCKLVGRHRDHQVASLNDR

Variants of: B1
Assay: abundance fitness (aPCA) (normalised: wild type 0, dead -1); higher = more abundant; growth selection in yeast, the domain comes from the species named
Details: Homo sapiens

Abundance fitness, by site and new letter:
Q22: D -0.19 ± 0.2 | Y -0.264 ± 0.35 | E -0.113 ± 0.085 | I -0.259 ± 0.19 | W -0.515 ± 0.13 | L -0.177 ± 0.063 | K 0.05 ± 0.068 | M 0.054 ± 0.068 | V -0.012 ± 0.062 | R 0.1 ± 0.054 | P -0.381 ± 0.1 | T -0.062 ± 0.12 | S 0.049 ± 0.056
K12: S 0.095 ± 0.068 | G -0.102 ± 0.05 | D -0.012 ± 0.088 | R -0.042 ± 0.049 | P 0.124 ± 0.059 | L -0.049 ± 0.069 | W -0.229 ± 0.074 | V -0.083 ± 0.065 | E 0.104 ± 0.065 | C -0.389 ± 0.16 | I -0.244 ± 0.15 | Q -0.103 ± 0.082 | A -0.095 ± 0.059
N14: R -0.087 ± 0.052 | C -0.204 ± 0.12 | L -0.124 ± 0.074 | T 0.049 ± 0.068 | P -0.434 ± 0.23 | H 0.117 ± 0.096 | W -0.482 ± 0.11 | S 0.06 ± 0.075 | Q 0.119 ± 0.093 | D -0.132 ± 0.1 | M -0.487 ± 0.19 | V -0.055 ± 0.06 | G -0.021 ± 0.05 | K 0.015 ± 0.069 | A 0 ± 0.062 | E 0.104 ± 0.069
C25: S -1.03 ± 0.14 | W -1.92 ± 0.34 | G -0.805 ± 0.088 | K -0.951 ± 0.3 | Q -1.02 ± 0.15 | L -1.34 ± 0.18 | P -0.417 ± 0.14 | E -0.786 ± 0.11 | Y -0.841 ± 0.26 | F -0.468 ± 0.084 | T -0.526 ± 0.37 | A -1.12 ± 0.18 | R -1.2 ± 0.12 | N -1.14 ± 0.16 | D -0.834 ± 0.11 | V -1.03 ± 0.1
L23: N 0.352 ± 0.17 | C 0.049 ± 0.22 | R 0.023 ± 0.051 | T -0.046 ± 0.14 | Q 0.099 ± 0.089 | E 0.137 ± 0.077 | M 0.199 ± 0.069 | V 0.006 ± 0.064 | S -0.009 ± 0.07 | P 0.144 ± 0.076 | D 0.064 ± 0.2 | W -0.038 ± 0.072 | K 0.213 ± 0.081 | H -0.074 ± 0.16
N10: I -0.176 ± 0.37 | A -0.348 ± 0.052 | W -0.394 ± 0.055 | R -0.138 ± 0.048 | E -0.55 ± 0.07 | H -0.036 ± 0.12 | C -0.175 ± 0.068 | F -0.577 ± 0.12 | K -0.226 ± 0.12 | Q -0.313 ± 0.11 | M -0.173 ± 0.075 | V -0.416 ± 0.06 | S -0.156 ± 0.055 | T -0.26 ± 0.066 | G -0.198 ± 0.044 | P -0.414 ± 0.11 | L -0.102 ± 0.06 | D -0.072 ± 0.073
V13: I 0.1 ± 0.12 | E -0.215 ± 0.069 | Q -0.047 ± 0.12 | G -0.143 ± 0.05 | T -0.179 ± 0.075 | R -0.077 ± 0.055 | S -0.092 ± 0.081 | A -0.104 ± 0.057 | W -0.619 ± 0.18
H8: W -0.97 ± 0.069 | M -0.588 ± 0.088 | T -0.555 ± 0.06 | R -0.655 ± 0.053 | D -0.335 ± 0.1 | V -0.809 ± 0.062 | I -0.976 ± 0.29 | C -0.408 ± 0.089 | K -0.533 ± 0.093 | Y -0.831 ± 0.16 | F -0.808 ± 0.38 | L -0.703 ± 0.062 | E -0.47 ± 0.061 | G -0.582 ± 0.048
I24: T -0.122 ± 0.074 | Q -0.006 ± 0.22 | E -0.141 ± 0.15 | S -0.179 ± 0.12 | A -0.104 ± 0.11 | H -0.197 ± 0.22 | V 0.058 ± 0.11 | G -0.269 ± 0.084 | M -0.104 ± 0.12 | P 0.196 ± 0.21 | C -0.436 ± 0.14 | R -0.373 ± 0.12 | K -0.105 ± 0.1 | D -0.121 ± 0.11
D7: G -0.364 ± 0.046 | L -0.162 ± 0.066 | T -0.223 ± 0.093 | P -0.55 ± 0.07 | S -0.173 ± 0.053 | Q -0.147 ± 0.084 | H -0.015 ± 0.11 | I -0.015 ± 0.089 | M -0.239 ± 0.078 | Y -0.112 ± 0.098 | R -0.238 ± 0.044 | N -0.107 ± 0.083 | W -0.294 ± 0.051 | V -0.17 ± 0.048
Y16: N -0.251 ± 0.1 | A 0.077 ± 0.089 | W -0.039 ± 0.071 | V 0.023 ± 0.055 | Q 0.236 ± 0.091 | K 0.54 ± 0.27 | C -0.176 ± 0.14 | S -0.178 ± 0.073 | P -0.065 ± 0.088 | M -0.321 ± 0.15 | H -0.114 ± 0.2 | G 0.024 ± 0.055 | L -0.127 ± 0.063 | R 0.183 ± 0.05 | T -0.392 ± 0.08 | D -0.067 ± 0.12
D21: M -0.316 ± 0.067 | P -0.819 ± 0.11 | S -0.088 ± 0.059 | T -0.163 ± 0.057 | A -0.081 ± 0.049 | Q -0.132 ± 0.063 | Y -0.527 ± 0.15 | N 0.031 ± 0.12 | E -0.056 ± 0.06 | I -0.951 ± 0.17
